The values below are quoted from earlier work in patent US20040072753A1, “Peptides for use in the treatment of alzheimer's disease” (priority 2000, published 2004).

This data set addresses Aβ (Homo sapiens, UniProt P05067). The settings on record: Milton, Biochem. J. 344: 293-296 (1999); read-out: binding KD for catalase.

B1: catalase: antioxidant enzyme that binds Aβ (protein)
chain: ADSRDPASDQMQHWKEQRAAQKADVLTTGAGNPVGDKLNVITVGPRGPLLVQDVVFTDEMAHFDRERIPERVVHAKGAGAFGYFEVTHDITKYSKAKVFEHIGKKTPIAVRFSTVAGESGSADTVRDPRGFAVKFYTEDGNWDLVGNNTPIFFIRDPILFPSFIHSQKRNPQTHLKDPDMVWDFWSLRPESLHQVSFLFSDRGIPDGHRHMNGYGSHTFKLVNANGEAVYCKFHYKTDQGIKNLSVEDAARLSQEDPDYGIRDLFNAIATGKYPSWTFYIQVMTFNQAETFPFNPFDLTKVWPHKDYPLIPVGKLVLNRNPVNYFAEVEQIAFDPSNMPPGIEASPDKMLQGRLFAYPDTHRHRLGPNYLHIPVNCPYRARVANYQRDGPMCMQDNQGGAPNYYPNSFGAPEQQPSALEHSIQYSGEVRRFNTANDDNVTQVRAFYVNVLNEEQRKRLCENIAGHLKDAQIFIQKKAVKNFTEVHPDYGSHIQALLDKYNAEKPKNAIHTFVQSGSHLAAREKANL
For B1, the Kd (commonly the concentration at which binding is half-saturated) is 3.3 nM.
